# Experimental data from publication PMC11096381.
# B1: CD5 antigen-like (CD5L), endogenous mouse protein (natural protein)
# chain: ESPTKVQLVGGAHRCEGRVEVEHNGQWGTVCDDGWDRRDVAVVCRELNCGAVIQTPRGASYQPPASEQRVLIQGVDCNGTEDTLAQCELNYDVFDCSHEEDAGAQCENPDSDLLFIPEDVRLVDGPGHCQGRVEVLHQSQWSTVCKAGWNLQVSKVVCRQLGCGRALLTYGSCNKNTQGKGPIWMGKMSCSGQEANLRSCLLSRLENNCTHGEDTWMECEDPFELKLVGGDTPCSGRLEVLHKGSWGSVCDDNWGEKEDQVVCKQLGCGKSLHPSPKTRKIYGPGAGRIWLDDVNCSGKEQSLEFCRHRLWGYHDCTHKEDVEVICTDFDV
# Target: serum immunoglobulin M (IgM), endogenous mouse (mouse (endogenous in C57BL/6 mice))
# Experiment: SEC + other: SDS-PAGE with western blot keeping disulfide bonds; peritoneal fluid and serum of healthy WT mice (0 h); 7.5% SDS-PAGE under conditions that prevent disruption of CD5L-IgM disulfide bonds, western blot for CD5L, densitometry of IgM-bound and free bands; WT serum also fractionated on Superose 12 10/300 GL in PBS and fractions blotted for CD5L and IgM
binder,measurement,value
B1,percent of CD5L bound to IgM,> 90%
